Experimental data: patent publication US20230374147A1

Biological target: BCMA:APRIL 1:1 (human) (UniProt Q02223)
Assay: BLI, His-tagged human BCMA on tip, then human APRIL 3000 nM, then IgG; KD cell N/A, R2 0.0887

Sequence of BCMA:APRIL 1:1 (human) (Q02223 1-54 limits assumed, chain 1 of 2): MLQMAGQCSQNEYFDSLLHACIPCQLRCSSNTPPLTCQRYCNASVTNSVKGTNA
Sequence of BCMA:APRIL 1:1 (human) (O75888 115-250 limits assumed, chain 2 of 2, further chain): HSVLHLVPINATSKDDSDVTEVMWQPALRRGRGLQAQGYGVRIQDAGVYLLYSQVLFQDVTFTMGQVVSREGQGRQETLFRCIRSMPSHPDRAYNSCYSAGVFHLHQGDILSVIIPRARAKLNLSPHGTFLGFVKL

- BCMA:APRIL 1:1 response: 0.18
Substance: J6M0 (antibody)
